PMC7845591

Molecular target: endothelial protein C receptor (EPCR), residues 16 to 210, biotinylated on the BAP tag (human) (UniProt Q9UNN8)
Assay: SPR; Biacore T200; biotinylated EPCR captured on a CAP chip (150 RU); twofold dilution series of CIDRα domain or synthetic binder injected 240 s, dissociation 300 s; 20 mM HEPES pH 7.5, 150 mM NaCl, 0.005% Tween 20, 25°C; global fit to a 1:1 model

UniProt Q9UNN8, sequence (Q9UNN8 16-210): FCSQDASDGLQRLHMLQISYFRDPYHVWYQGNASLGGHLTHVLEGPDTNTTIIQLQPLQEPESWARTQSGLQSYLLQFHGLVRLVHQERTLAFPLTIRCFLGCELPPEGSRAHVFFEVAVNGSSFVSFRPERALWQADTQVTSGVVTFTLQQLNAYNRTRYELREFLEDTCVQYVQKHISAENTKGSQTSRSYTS

## HB3var03 CIDRα1.4 domain D576A K642A double mutant (domain or fragment)
  Kd: 220 nM
